Patent US20150197559A1
Numbering of substitutions follows the chain as printed.

B1: B11E8 Fab (Fab, V domains shown)
VH: EVQLVQSGGGVVQPGRSLRLSCAASGFIFRTYGMHWVRQAPGKGLEWVAFVSSDGNNKFYSDSVKGRFTISRDNAKNTLYLQMNSLETEDTAMYYCAKDRYPIDCSGGSCFSYGMDVWGQGTTVTVSS
VL: EIVLTQSPATLSVSPGERATLSCRASQSVSKFLAWYQQKRGQAPRLLIYGASTRATGIPARFSGSGSGTEFALTISSLQSEDFADYYCQQYDNWPITFGQGTRLEIKR
B2: B6 scFv (scFv)
scFv: QVQLVQSGAEVKKPGESLVISCKASGDKDTFTSFWIAWVRQMPGKGLEWMGIIYAGDSDTRYSPSFQGHVNISVDRSTNTAYLQWSSLKASDTAMYYCARHDSRYKYFYFGMDVWGQGTTVTVSSGGGGSGGGGSGGGGSDVVMTQSPSSLSASVGDRITITCQAGQDISNFLNWYQQKPGKAPKLLIRDASNLETGVPSRFSGGGSGTHFTFTISSLHPEDIATYFCQQYDNLPYTFGQGTKLEIK
B3: B11 scFv (scFv)
scFv: QVQLLQSAGGVVQPGRSLRLSCAASGFIFRTYGMHWVRQAPGKGLEWVAFVSSDGNNKFYSDSVKGRFTIPRDNAKNTLYLQMNSLETEDTAVYYCAKDRYPIDCSGGSCFSYGMDVWGQGTTVTVSSGGGGSGGGGSGGGGSDIVMTQSPSTLSASVGDRVTVTCRASQSINSWLAWYQQKPGKAPKLLIYEASSLESGVPSRFSGSGSGTEFTLTISSLQPDDFATYYCQQYDSYWLTFGGGTKVEIK
B4: B11E8 scFv (scFv)
scFv: EVQLVQSGGGVVQPGRSLRLSCAASGFIFRTYGMHWVRQAPGKGLEWVAFVSSDGNNKFYSDSVKGRFTISRDNAKNTLYLQMNSLETEDTAMYYCAKDRYPIDCSGGSCFSYGMDVWGQGTTVTVSSGGGGSGGGGSGGGGSEIVLTQSPATLSVSPGERATLSCRASQSVSKFLAWYQQKRGQAPRLLIYGASTRATGIPARFSGSGSGTEFALTISSLQSEDFADYYCQQYDNWPITFGQGTRLEIK
B5: 2B30 scFv (scFv)
scFv: EVQLVESGGGVVQPGRSLRLSCAASGFTFRRNAIHWVRQAPGKGLEWVAVISYDGVNKYYAASVKGRFAISRDNAKNTLFLQMNSLRPEDSAIYYCARDVSEYGDYVGHFDYWGQGTLVTVSSGGGGSGGGGSGGGGSSYELMQLPSASGTPGQRVSISCSGSSSNIGSNPVNWYQQLPGTAPKLLIYSNNHRPSGVPDRFSGSKSGTSASLAISGLQSEDEADYYCAAWDGSLNGHVVFGGGTKLTVL
B6: 2B25.1 IgG (antibody, V domains shown)
VH: QVQLQESGPGLVKPSQTLSLSCSVSGASITSGTFYWSWIRQHPGKDLEWIGYIYYSGTTYYNPSLKSRVTLSVDTSKNQFSLKVTSLTAADTAVYHCARGVPIYDSSGTYRGTYFDYWGQGTLVTVSS
VL: ESVLTQPPSVSAAPGQKVTISCSGSSSNIGNNYVSWYQQLPGTAPKLLIYDNNRRPSGIPDRFSGSKSGTSATLGITGLQTGDEADYYCGTWDSSLSEVVFGGGTKVTVLG
B7: 1B18 IgG (antibody, V domains shown)
VH: EVQLVQSGGGLVQPGGSRRLSCAASGFYFNAYWMTWVRQAPGKGLEWVANINLDGTEIYYLDSVKGRFTVSRDNVKNSVFLQMSSLRVEDTAVYFCARLEWGGRNGWVSPWGQGTLVTVSS
VL: DVVMTQSPSSVSASVGDRVTITCRASQSISSYLNWYQQRPGKAPKLLIFAASSLQSAVPSRFSGSGSGTDFTLTISSLQPEDFATYYCQQSYSTPPTFGQGTKVEIKR
B8: 1B22 IgG (antibody, V domains shown)
VH: QVQLQESGSRLVKPSQTLSLTCGVSGGSISSSSYSWSWIRQTPGKGLEWIGYIYHSGSTYYNPSLKSRVTMSVDKSRNQFSLNMSSVTAADTAVYYCARTAFYYENTGPIRCYLDFWGQGTLVTVSS
VL: DIQMTQSPSTLSASIGDRVTISCRASQSIQSWLAWYQQRPGEAPKLLIYSASTLQTGVPSRFSGSGSGTDFTLTISSLQPEDFATYYCQQYNSYPLTFGQGTKLEIK
B9: 2B23 IgG (antibody, V domains shown)
VH: EVQLLESGGGLVQPGGSLRLSCAASGFTFSNYPMSWVRQAPGKGLAWVSSLTASGDNTFYADSVKGRFTISRDNSNNTLYLQMHSLRAEDTAVYYCAKALVGRYDISTGYYRPVMDSWGQGTLVTVSS
VL: DIQMTQSPPSLSASVGDRVTITCRTSQGFTSALAWYQQKPGEPPKLLIYDASKLESGVPSRFSGSGSGTNFALTISSLQPEDFATYFCQQSNSYPLTFGGGTKVEIKR
B10: B12.1 IgG (antibody, V domains shown)
VH: QVNLRESGGGVVQPGRSLRLSCAASGFTFSSYALHWVRQTPGKGLEWVALISYDGSNKYYADSVKGRFTISRDNSKNMLYLQMNSLRAEDTAVYYCAKDRSHYGDYVGYLDYWGQGTLVTVSS
VL: AYVLTQPPSVSVAPGKTAAITCEGNNVGNKNVHWYQQRPGQAPVLVVHDDSDRPSGIPERFSGSNSGNTATLTINRVEAGDEADYYCQVWDSSSAQWVFGGGTKLTVLG
B11: 1B10.1 IgG (antibody, V domains shown)
VH: QVQLVESGGGVVQPGRSLRLSCAASGFTFSHYGMHWVRQSPGKGLEWVAVIWYDGRNPYYAASVKGRFTISRDNDKNTLYLQMNSLRAEDTAVYYCVKDLTRFHDTTFGVFEMWGPGTTVTVSS
VL: EIVLTQSPSFVSASVGDRVTITCRASQGISSWLAWYQQKPGKAPKLLIYAASSLQSGVPSRFSGSGSGTEFTLTISSLQPDDFATYYCQQYSSLYTFGQGTKVDIKR
B12: B11E8 IgG (antibody, V domains shown)
VH: B1 VH
VL: B1 VL
B13: B11 Fab (Fab, V domains shown)
VH: B1 VH with E1Q, V5L, G8A, S71P, M93V
VL: DIVMTQSPSTLSASVGDRVTVTCRASQSINSWLAWYQQKPGKAPKLLIYEASSLESGVPSRFSGSGSGTEFTLTISSLQPDDFATYYCQQYDSYWLTFGGGTKVEIKR

Target: BoNT/B2 (Clostridium botulinum)
Experiment: flow cytometry, yeast-displayed Fab, soluble toxin

With B1 the Kd was 0.166 nM.

Target: BoNT/B2 (Clostridium botulinum)
Experiment: flow cytometry, yeast-displayed scFv, soluble toxin

B2 and B3 are within 1.5-fold of each other in Kd: 1.77 nM for the first, 2.11 nM for the second.

B4 and B5 are within 1.5-fold of each other in Kd: 0.189 nM for the first, 0.19 nM for the second.

Target: BoNT/B4 (Clostridium botulinum)
Experiment: KinExA flow fluorimetry, IgG in solution

B6 and B7 are within 1.5-fold of each other in Kd: 0.03 nM for the first, 0.021 nM for the second.

Going from B8 to B9, the Kd falls from 0.129 nM to 0.0552 nM (2.3-fold). The second binds more tightly here.

First: B10
Second: B11
The Kd of the first is 1300-fold higher: 0.625 nM for the first, 0.00047 nM for the second.

Target: BoNT/B2 (Clostridium botulinum)
Experiment: KinExA flow fluorimetry, IgG in solution

First: B6
Second: B7
The Kd of the first is 15-fold lower: 0.0532 nM for the first, 0.817 nM for the second. The first binds more tightly here.

First: B8
Second: B9
The Kd of the first is 7-fold higher: 0.319 nM for the first, 0.0453 nM for the second. The second binds more tightly here.

B12 and B10 are within 1.5-fold of each other in Kd: 0.0181 nM for the first, 0.0162 nM for the second.

B11 showed a Kd of 0.00031 nM.

Target: BoNT/B3 (Clostridium botulinum)
Experiment: KinExA flow fluorimetry, IgG in solution

First: B6
Second: B7
The Kd of the first is 55-fold lower: 0.0177 nM for the first, 0.972 nM for the second.

Going from B8 to B9, the Kd falls from 0.221 nM to 0.048 nM (4.6-fold). The second binds more tightly here.

First: B12
Second: B10
The Kd of the first is 3-fold lower: 0.0156 nM for the first, 0.0462 nM for the second.

With B11 the Kd was 1.2 nM.

Target: BoNT/B2 (Clostridium botulinum)
Experiment: flow cytometry, yeast-displayed Fab against yeast-displayed scFv

With B13 the fold higher affinity than the scFv was 1.46 fold.
